In IntAct's records for PubMed 28065597:

Legend:
vgfr2_human KDR = vgfr2_human KDR (UniProt P35968)
igf1r_human IGF1R [1] = biological target: igf1r_human IGF1R (UniProt P08069)
fgfr4_human FGFR4 = fgfr4_human FGFR4 (UniProt P22455)
fgfr2_human FGFR2 = fgfr2_human FGFR2 (UniProt P21802)
igf1r_human IGF1R [2] = biological target: igf1r_human IGF1R (UniProt P08069); remark: listed apart in the source
erbb4_human ERBB4 = erbb4_human ERBB4 (UniProt Q15303)
grb2_human GRB2 = grb2_human GRB2 (UniProt P62993)

Chain of Tyrosine-protein phosphatase non-receptor type 6 (Homo sapiens), P29350 D419A;C453S (P29350 whole entry D419A/C453S): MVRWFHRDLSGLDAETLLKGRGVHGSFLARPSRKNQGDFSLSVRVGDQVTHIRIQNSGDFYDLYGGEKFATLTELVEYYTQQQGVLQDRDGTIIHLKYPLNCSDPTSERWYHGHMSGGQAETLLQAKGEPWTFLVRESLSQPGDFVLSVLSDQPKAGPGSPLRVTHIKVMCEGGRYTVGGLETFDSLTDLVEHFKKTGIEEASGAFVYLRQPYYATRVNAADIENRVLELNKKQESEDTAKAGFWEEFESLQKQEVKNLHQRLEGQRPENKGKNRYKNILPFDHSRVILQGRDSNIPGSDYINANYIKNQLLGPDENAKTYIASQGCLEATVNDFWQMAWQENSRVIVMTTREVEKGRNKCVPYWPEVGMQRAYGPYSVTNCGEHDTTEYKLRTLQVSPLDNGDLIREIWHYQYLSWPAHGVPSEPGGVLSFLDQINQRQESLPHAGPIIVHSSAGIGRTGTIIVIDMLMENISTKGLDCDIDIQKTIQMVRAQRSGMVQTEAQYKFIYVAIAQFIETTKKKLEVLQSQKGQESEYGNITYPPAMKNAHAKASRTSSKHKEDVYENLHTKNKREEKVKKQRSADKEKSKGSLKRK
Chain of igf1r_human IGF1R (P08069 whole entry, looked up): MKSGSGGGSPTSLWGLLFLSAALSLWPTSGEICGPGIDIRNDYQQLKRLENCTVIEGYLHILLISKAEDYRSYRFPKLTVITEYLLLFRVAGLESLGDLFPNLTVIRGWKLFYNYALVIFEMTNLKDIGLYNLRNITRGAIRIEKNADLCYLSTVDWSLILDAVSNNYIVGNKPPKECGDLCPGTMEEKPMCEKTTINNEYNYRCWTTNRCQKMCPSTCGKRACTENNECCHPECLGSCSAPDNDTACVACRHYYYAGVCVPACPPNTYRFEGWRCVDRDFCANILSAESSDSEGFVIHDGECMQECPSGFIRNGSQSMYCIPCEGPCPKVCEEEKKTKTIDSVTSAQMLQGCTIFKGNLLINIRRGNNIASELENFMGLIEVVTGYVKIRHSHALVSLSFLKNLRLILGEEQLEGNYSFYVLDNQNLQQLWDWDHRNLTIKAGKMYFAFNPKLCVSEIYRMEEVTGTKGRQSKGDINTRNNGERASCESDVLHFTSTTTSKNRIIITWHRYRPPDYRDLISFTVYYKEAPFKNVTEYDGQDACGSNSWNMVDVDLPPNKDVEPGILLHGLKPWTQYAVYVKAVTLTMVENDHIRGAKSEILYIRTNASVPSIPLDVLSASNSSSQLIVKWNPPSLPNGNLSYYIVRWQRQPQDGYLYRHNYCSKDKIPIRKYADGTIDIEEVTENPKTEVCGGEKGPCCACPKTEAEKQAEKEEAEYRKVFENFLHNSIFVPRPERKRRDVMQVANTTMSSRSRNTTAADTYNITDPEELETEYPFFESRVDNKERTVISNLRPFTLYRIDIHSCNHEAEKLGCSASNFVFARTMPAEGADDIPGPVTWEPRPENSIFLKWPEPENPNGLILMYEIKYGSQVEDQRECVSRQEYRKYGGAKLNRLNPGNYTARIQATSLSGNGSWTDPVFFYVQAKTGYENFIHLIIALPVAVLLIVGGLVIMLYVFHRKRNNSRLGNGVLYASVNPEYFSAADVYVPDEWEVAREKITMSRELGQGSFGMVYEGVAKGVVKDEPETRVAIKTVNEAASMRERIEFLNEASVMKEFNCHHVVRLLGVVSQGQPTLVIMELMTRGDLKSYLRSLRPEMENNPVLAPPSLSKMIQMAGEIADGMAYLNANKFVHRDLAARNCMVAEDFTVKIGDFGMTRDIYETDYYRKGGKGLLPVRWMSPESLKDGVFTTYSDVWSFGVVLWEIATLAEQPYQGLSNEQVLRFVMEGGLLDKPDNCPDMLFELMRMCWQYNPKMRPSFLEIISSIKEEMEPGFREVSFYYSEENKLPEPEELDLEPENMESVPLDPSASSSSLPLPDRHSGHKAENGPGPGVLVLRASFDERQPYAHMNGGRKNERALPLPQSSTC
Chain of Tyrosine-protein phosphatase non-receptor type 6 (Homo sapiens), P29350 C453S (P29350 whole entry C453S): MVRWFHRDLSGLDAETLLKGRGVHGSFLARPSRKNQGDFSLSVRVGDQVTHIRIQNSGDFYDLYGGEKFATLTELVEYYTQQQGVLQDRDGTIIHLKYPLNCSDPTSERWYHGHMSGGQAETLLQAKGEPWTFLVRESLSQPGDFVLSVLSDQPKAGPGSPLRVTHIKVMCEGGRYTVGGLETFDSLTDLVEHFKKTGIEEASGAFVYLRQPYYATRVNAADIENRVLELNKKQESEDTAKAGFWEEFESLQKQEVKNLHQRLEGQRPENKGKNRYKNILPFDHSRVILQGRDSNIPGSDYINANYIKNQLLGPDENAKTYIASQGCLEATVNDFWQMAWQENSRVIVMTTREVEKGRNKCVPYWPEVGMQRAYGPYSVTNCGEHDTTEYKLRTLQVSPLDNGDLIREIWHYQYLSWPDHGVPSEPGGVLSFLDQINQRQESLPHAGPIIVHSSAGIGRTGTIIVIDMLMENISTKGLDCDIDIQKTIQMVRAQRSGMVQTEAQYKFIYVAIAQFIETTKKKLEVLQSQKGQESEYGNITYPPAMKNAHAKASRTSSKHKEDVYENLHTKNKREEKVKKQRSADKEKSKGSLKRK
Chain of vgfr2_human KDR (P35968 whole entry): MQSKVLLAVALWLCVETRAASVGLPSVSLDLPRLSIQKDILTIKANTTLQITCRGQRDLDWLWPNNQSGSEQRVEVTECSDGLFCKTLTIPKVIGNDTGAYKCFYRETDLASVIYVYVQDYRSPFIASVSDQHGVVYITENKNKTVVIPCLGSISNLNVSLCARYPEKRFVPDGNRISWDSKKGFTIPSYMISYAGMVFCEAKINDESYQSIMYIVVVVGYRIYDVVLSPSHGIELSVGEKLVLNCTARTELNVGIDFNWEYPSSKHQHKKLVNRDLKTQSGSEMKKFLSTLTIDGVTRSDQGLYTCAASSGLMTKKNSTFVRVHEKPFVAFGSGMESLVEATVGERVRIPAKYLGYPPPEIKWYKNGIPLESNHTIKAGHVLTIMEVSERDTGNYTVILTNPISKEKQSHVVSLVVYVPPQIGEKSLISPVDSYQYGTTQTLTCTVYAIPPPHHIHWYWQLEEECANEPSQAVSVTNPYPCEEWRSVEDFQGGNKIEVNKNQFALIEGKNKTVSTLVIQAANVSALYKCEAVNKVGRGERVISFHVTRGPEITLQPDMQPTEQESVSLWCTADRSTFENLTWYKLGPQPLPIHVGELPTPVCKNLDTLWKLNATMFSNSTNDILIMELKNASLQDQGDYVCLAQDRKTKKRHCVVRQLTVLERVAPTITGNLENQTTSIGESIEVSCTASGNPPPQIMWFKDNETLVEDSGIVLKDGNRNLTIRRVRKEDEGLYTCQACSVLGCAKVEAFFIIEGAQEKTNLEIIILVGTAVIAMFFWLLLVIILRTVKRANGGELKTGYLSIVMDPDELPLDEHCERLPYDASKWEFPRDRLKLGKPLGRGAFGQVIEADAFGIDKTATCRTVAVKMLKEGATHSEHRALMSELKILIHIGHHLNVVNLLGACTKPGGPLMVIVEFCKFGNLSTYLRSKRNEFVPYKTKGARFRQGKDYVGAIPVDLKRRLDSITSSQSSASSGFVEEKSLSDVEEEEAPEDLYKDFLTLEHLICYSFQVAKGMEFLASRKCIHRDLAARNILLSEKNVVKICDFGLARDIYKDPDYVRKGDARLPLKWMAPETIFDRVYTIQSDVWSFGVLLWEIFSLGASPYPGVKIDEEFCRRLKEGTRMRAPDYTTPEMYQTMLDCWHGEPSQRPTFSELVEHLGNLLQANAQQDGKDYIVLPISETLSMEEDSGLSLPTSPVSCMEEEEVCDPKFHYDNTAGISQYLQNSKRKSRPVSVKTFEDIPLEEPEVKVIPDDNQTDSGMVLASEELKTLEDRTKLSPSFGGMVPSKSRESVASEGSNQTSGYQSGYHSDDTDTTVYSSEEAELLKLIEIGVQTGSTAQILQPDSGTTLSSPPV
Chain of fgfr4_human FGFR4 (P22455 whole entry, looked up): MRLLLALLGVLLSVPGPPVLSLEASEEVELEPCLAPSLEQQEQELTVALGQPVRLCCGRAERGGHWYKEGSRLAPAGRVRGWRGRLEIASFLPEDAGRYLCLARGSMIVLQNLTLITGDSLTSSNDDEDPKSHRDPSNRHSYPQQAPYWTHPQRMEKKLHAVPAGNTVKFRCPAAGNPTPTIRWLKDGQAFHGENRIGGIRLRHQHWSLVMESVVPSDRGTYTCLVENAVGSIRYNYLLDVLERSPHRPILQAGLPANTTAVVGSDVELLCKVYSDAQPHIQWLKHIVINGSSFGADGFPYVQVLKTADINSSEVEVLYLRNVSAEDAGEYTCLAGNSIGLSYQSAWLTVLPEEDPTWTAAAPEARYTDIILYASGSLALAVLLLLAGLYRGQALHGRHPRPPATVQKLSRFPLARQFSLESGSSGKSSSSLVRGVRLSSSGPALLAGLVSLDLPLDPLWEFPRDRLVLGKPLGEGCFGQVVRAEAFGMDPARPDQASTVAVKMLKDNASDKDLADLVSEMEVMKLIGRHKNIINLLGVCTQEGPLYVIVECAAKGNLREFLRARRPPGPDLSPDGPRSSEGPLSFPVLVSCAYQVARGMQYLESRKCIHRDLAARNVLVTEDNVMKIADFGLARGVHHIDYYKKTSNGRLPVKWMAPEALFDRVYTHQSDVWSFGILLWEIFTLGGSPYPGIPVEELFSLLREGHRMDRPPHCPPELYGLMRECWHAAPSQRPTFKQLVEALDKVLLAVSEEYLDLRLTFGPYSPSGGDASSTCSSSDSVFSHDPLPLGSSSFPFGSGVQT

effect of a mutation on the interaction (vgfr2_human KDR)	effect of a mutation on the interaction (igf1r_human IGF1R [1])	effect of a mutation on the interaction (fgfr4_human FGFR4)	effect of a mutation on the interaction (fgfr2_human FGFR2)	effect of a mutation on the interaction (igf1r_human IGF1R [2])	effect of a mutation on the interaction (erbb4_human ERBB4)	effect of a mutation on the interaction (grb2_human GRB2)	Substance
with no effect	with no effect	with no effect	with no effect	decreasing interaction	with no effect		Tyrosine-protein phosphatase non-receptor type 6 (Homo sapiens), P29350 D419A;C453S
						decreasing interaction	Receptor-type tyrosine-protein phosphatase alpha (Homo sapiens) (from UniProt P18433) Y798F
with no effect		with no effect	with no effect	decreasing interaction	with no effect		Tyrosine-protein phosphatase non-receptor type 6 (Homo sapiens), P29350 C453S
